Data: the supplement of paper PMC10126150
± gives the standard deviation of the averaged measurements.

Tested on: ATP
Experiment: switch fluorescence ratio, 500 uM ATP over buffer (Cy3 cluster intensity, sum of 5 cycles each) (fold (ratio)); higher = stronger signal-on switching upon ATP binding; sequences stand for … in TCGTCGGCAGCGTCAGATGTGTATAAGAGACAGTTTTTTTTTTTTTTTTTTTTTTTTT…TC
Settings: aptamer strand: ATP DNA aptamer (quencher-CACCTGGGGGAGTATTGCGGAGGAAGG + anchor), 100 nM annealed; ATP concentration: 500 uM
Summary of the method: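 Exposure to 500 uM ATP lasted 15 min at 22 °C before imaging, and a selection-buffer image was taken beforehand, for Cy3-labelled switching-strand clusters on a modified Illumina MiSeq flow-cell annealed to 100 nM quencher-labelled ATP aptamer. Five buffer/ATP cycles were run with NaOH stripping and re-annealing between them. The fluorescence ratio per cluster is summed target-cycle over summed buffer-cycle Cy3 intensity, averaged per switch-domain sequence. Clusters outside 100-1000 RFU were excluded.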

ATTAGTGATC
switch fluorescence ratio: 1.003 ± 0.0011

ATTAGTTAGC
switch fluorescence ratio: 1.01 ± 0.05

ATTAGTTATA
switch fluorescence ratio: 0.975 ± 0.029

ATTAGTTGGA
switch fluorescence ratio: 0.99 ± 0.024

ATTAGTTGGC
switch fluorescence ratio: 0.993 ± 0.027

ATTATAGGGT
switch fluorescence ratio: 1.03 ± 0.026

ATTATAGGTT
switch fluorescence ratio: 0.996 ± 0.0091

ATTATAGTCG
switch fluorescence ratio: 1.01 ± 0.036

ATTATATAAT
switch fluorescence ratio: 1.01 ± 0.046

ATTATCTAGG
switch fluorescence ratio: 0.985 ± 0.013

ATTATGAACC
switch fluorescence ratio: 1.04 ± 0.016

ATTATGAATG
switch fluorescence ratio: 0.989 ± 0.0071

ATTATGGGGT
switch fluorescence ratio: 1 ± 0.017

ATTATGTCCA
switch fluorescence ratio: 0.96991 ± 0.00059

ATTATTAGGA
switch fluorescence ratio: 1.04 ± 0.088

ATTATTATGT
switch fluorescence ratio: 0.978 ± 0.01

ATTATTTTAT
switch fluorescence ratio: 1.05 ± 0.069

ATTCAATCGA
switch fluorescence ratio: 1.018 ± 0.0031

ATTCACTTGA
switch fluorescence ratio: 1.08 ± 0.061

ATTCAGGTC
switch fluorescence ratio: 1 ± 0.038

ATTCATATTG
switch fluorescence ratio: 1.01 ± 0.042

ATTCATGGGG
switch fluorescence ratio: 0.98 ± 0.019

ATTCATTAGG
switch fluorescence ratio: 1.02 ± 0.034

ATTCATTTAG
switch fluorescence ratio: 0.996 ± 0.013

ATTCCATGGT
switch fluorescence ratio: 0.9909 ± 0.0052

ATTCCCCGGG
switch fluorescence ratio: 1.66 ± 0.68

ATTCCCGGAT
switch fluorescence ratio: 1.04 ± 0.046

ATTCCGTATA
switch fluorescence ratio: 1.25 ± 0.022

ATTCCTAGA
switch fluorescence ratio: 0.992 ± 0.021

ATTCCTGTT
switch fluorescence ratio: 1.004 ± 0.0019

ATTCGAGGGG
switch fluorescence ratio: 1.03 ± 0.061

ATTCGCAGCC
switch fluorescence ratio: 1.55 ± 0.029

ATTCGCCGGT
switch fluorescence ratio: 0.959 ± 0.0066

ATTCGCCTAG
switch fluorescence ratio: 0.987 ± 0.012

ATTCGGGCTT
switch fluorescence ratio: 0.976 ± 0.013

ATTCGGGGGC
switch fluorescence ratio: 1.11 ± 0.2

ATTCGGTCAT
switch fluorescence ratio: 1 ± 0.015

ATTCGTTGTT
switch fluorescence ratio: 0.997 ± 0.01

ATTCGTTTTG
switch fluorescence ratio: 1.03 ± 0.017

ATTCTCGTTA
switch fluorescence ratio: 0.996 ± 0.0053

ATTCTCTTAT
switch fluorescence ratio: 1.02 ± 0.059

ATTCTGGAAT
switch fluorescence ratio: 1.02 ± 0.06

ATTCTGGGGT
switch fluorescence ratio: 1.04 ± 0.07

ATTCTGTTAG
switch fluorescence ratio: 0.993 ± 0.0092

ATTCTTAGGG
switch fluorescence ratio: 1.12 ± 0.27

ATTCTTATTG
switch fluorescence ratio: 0.9801 ± 0.0021

ATTCTTCTTA
switch fluorescence ratio: 1.028 ± 0.0033

ATTCTTTACG
switch fluorescence ratio: 1.03 ± 0.015

ATTCTTTGGG
switch fluorescence ratio: 1.01 ± 0.02

ATTCTTTTTT
switch fluorescence ratio: 0.997 ± 0.024

ATTGAACAT
switch fluorescence ratio: 0.984 ± 0.015

ATTGAACGTT
switch fluorescence ratio: 0.979 ± 0.015

ATTGAAGCGG
switch fluorescence ratio: 1.01 ± 0.05

ATTGAATGTG
switch fluorescence ratio: 0.973 ± 0.013

ATTGAATTTG
switch fluorescence ratio: 0.9999 ± 0.0013

ATTGAGAAGT
switch fluorescence ratio: 0.996 ± 0.031

ATTGAGAATC
switch fluorescence ratio: 0.962 ± 0.035

ATTGAGATCG
switch fluorescence ratio: 1.01 ± 0.033

ATTGAGGGAG
switch fluorescence ratio: 1 ± 0.024

ATTGAGTGTT
switch fluorescence ratio: 0.987 ± 0.034

ATTGATGACT
switch fluorescence ratio: 1.04 ± 0.027

ATTGATGAGG
switch fluorescence ratio: 0.972 ± 0.012

ATTGATGGGG
switch fluorescence ratio: 0.976 ± 0.042

ATTGATTGTA
switch fluorescence ratio: 0.995 ± 0.035

ATTGCATAGG
switch fluorescence ratio: 0.9951 ± 0.0021

ATTGCCGGAG
switch fluorescence ratio: 0.999 ± 0.037

ATTGCGAGGC
switch fluorescence ratio: 1.04 ± 0.029

ATTGCGGCTA
switch fluorescence ratio: 1.03 ± 0.033

ATTGCGTGTA
switch fluorescence ratio: 1.023 ± 0.0085

ATTGCGTTGG
switch fluorescence ratio: 0.996 ± 0.013

ATTGCGTTTG
switch fluorescence ratio: 1.01 ± 0.026

ATTGCTAGGG
switch fluorescence ratio: 1.03 ± 0.023

ATTGCTGCGA
switch fluorescence ratio: 1.006 ± 0.0075

ATTGCTTACG
switch fluorescence ratio: 1.14 ± 0.19

ATTGGAATTA
switch fluorescence ratio: 0.985 ± 0.047

ATTGGAGGCA
switch fluorescence ratio: 1.03 ± 0.03

ATTGGAGTAG
switch fluorescence ratio: 1.01 ± 0.014

ATTGGATATT
switch fluorescence ratio: 1.02 ± 0.015

ATTGGCGCGG
switch fluorescence ratio: 0.969 ± 0.012

ATTGGCGTTT
switch fluorescence ratio: 0.996 ± 0.049

ATTGGGAAGA
switch fluorescence ratio: 1.02 ± 0.028

ATTGGGAATC
switch fluorescence ratio: 0.9923 ± 0.0027

ATTGGGAGGA
switch fluorescence ratio: 1 ± 0.014

ATTGGGAGGG
switch fluorescence ratio: 1.022 ± 0.0026

ATTGGGGAGG
switch fluorescence ratio: 0.974 ± 0.012

ATTGGGGATG
switch fluorescence ratio: 0.9819 ± 0.0097

ATTGGGGGAG
switch fluorescence ratio: 0.987 ± 0.033

ATTGGGGGGC
switch fluorescence ratio: 1.01 ± 0.036

ATTGGGGTAT
switch fluorescence ratio: 1 ± 0.03

ATTGGGTTGT
switch fluorescence ratio: 0.973 ± 0.015

ATTGGGTTTT
switch fluorescence ratio: 0.999 ± 0.022

ATTGGTAAGG
switch fluorescence ratio: 0.995 ± 0.025

ATTGGTATAT
switch fluorescence ratio: 1.007 ± 0.0068

ATTGGTATCT
switch fluorescence ratio: 0.979 ± 0.014

ATTGGTCATA
switch fluorescence ratio: 1 ± 0.028

ATTGGTGGTT
switch fluorescence ratio: 1 ± 0.074

ATTGGTTACG
switch fluorescence ratio: 1.01 ± 0.028

ATTGGTTTGG
switch fluorescence ratio: 1.032 ± 0.01

ATTGTAGGGT
switch fluorescence ratio: 0.972 ± 0.021

ATTGTATTG
switch fluorescence ratio: 0.986 ± 0.014

ATTGTATTGT
switch fluorescence ratio: 0.987 ± 0.03

ATTGTCGG
switch fluorescence ratio: 0.972 ± 0.028

ATTGTGCGGG
switch fluorescence ratio: 1.01 ± 0.036

ATTGTGCTGG
switch fluorescence ratio: 0.983 ± 0.018

ATTGTGGAGA
switch fluorescence ratio: 1.03 ± 0.032

ATTGTGGGAC
switch fluorescence ratio: 0.996 ± 0.077

ATTGTGGGCG
switch fluorescence ratio: 0.952 ± 0.017

ATTGTGGGCT
switch fluorescence ratio: 0.967 ± 0.063

ATTGTTACTG
switch fluorescence ratio: 1.06 ± 0.021

ATTGTTACTT
switch fluorescence ratio: 1.02 ± 0.019

ATTGTTAGGG
switch fluorescence ratio: 0.985 ± 0.019

ATTGTTATTT
switch fluorescence ratio: 1.02 ± 0.018

ATTGTTGTAG
switch fluorescence ratio: 0.985 ± 0.00069

ATTGTTTATT
switch fluorescence ratio: 0.998 ± 0.012

ATTGTTTGAG
switch fluorescence ratio: 0.982 ± 0.0032

ATTGTTTGTT
switch fluorescence ratio: 1.01 ± 0.016

ATTGTTTTGG
switch fluorescence ratio: 0.981 ± 0.028

ATTGTTTTTC
switch fluorescence ratio: 1.04 ± 0.073

ATTTAAAGAT
switch fluorescence ratio: 0.987 ± 0.049

ATTTAAAGGT
switch fluorescence ratio: 0.964 ± 0.018

ATTTAAGAGA
switch fluorescence ratio: 1.01 ± 0.051

ATTTAAGAGG
switch fluorescence ratio: 1 ± 0.041

ATTTAAGCTC
switch fluorescence ratio: 0.987 ± 0.024

ATTTAAGTGT
switch fluorescence ratio: 1 ± 0.021

ATTTAATTAA
switch fluorescence ratio: 1.02 ± 0.056

ATTTAATTGT
switch fluorescence ratio: 0.986 ± 0.053

ATTTACATAT
switch fluorescence ratio: 1.03 ± 0.015

ATTTACGGGG
switch fluorescence ratio: 1.04 ± 0.0031

ATTTACTCGT
switch fluorescence ratio: 1.014 ± 0.0017

ATTTAGAATG
switch fluorescence ratio: 1.02 ± 0.011

ATTTAGGTTA
switch fluorescence ratio: 0.989 ± 0.021

ATTTAGTTCG
switch fluorescence ratio: 0.9606 ± 0.0073

ATTTATAATT
switch fluorescence ratio: 0.992 ± 0.028

ATTTATAGGG
switch fluorescence ratio: 0.982 ± 0.014

ATTTATCGGG
switch fluorescence ratio: 1 ± 0.027

ATTTATGGAT
switch fluorescence ratio: 1 ± 0.023

ATTTATGGGG
switch fluorescence ratio: 1 ± 0.032

ATTTATTTTT
switch fluorescence ratio: 1.011 ± 0.002

ATTTCAAGTT
switch fluorescence ratio: 0.966 ± 0.011

ATTTCCGTTT
switch fluorescence ratio: 0.984 ± 0.013

ATTTCGGTGG
switch fluorescence ratio: 1.06 ± 0.044

ATTTCGTCGA
switch fluorescence ratio: 0.991 ± 0.019

ATTTCTAGAA
switch fluorescence ratio: 1.02 ± 0.015

ATTTCTAGGG
switch fluorescence ratio: 1.027 ± 0.0041

ATTTCTCGGT
switch fluorescence ratio: 1.07 ± 0.066

ATTTCTTGGT
switch fluorescence ratio: 0.9751 ± 0.0083

ATTTGAATTG
switch fluorescence ratio: 1.02 ± 0.03

ATTTGAGATT
switch fluorescence ratio: 1 ± 0.018

ATTTGAGCTA
switch fluorescence ratio: 1.04 ± 0.023

ATTTGAGGGA
switch fluorescence ratio: 1.13 ± 0.2

ATTTGATCGA
switch fluorescence ratio: 1.02 ± 0.075

ATTTGATTCG
switch fluorescence ratio: 1.008 ± 0.0087

ATTTGCAGGA
switch fluorescence ratio: 0.992 ± 0.046

ATTTGCAGTG
switch fluorescence ratio: 0.994 ± 0.021

ATTTGCTGTG
switch fluorescence ratio: 0.9916 ± 0.0062

ATTTGGACGA
switch fluorescence ratio: 1 ± 0.03

ATTTGGCATC
switch fluorescence ratio: 1.41 ± 0.47
